Reference: publication doi:10.64898/2025.12.22.696113

Biological target: extracellular domain of Arabidopsis thaliana HAESA-LIKE 3 (HSL3, AT5G25930, residues 23–662) (Arabidopsis thaliana)
Assay: SPR

| Kd [µM] | kon [M⁻¹ s⁻¹] | Substance |
| --- | --- | --- |
| 1.99 | 1140 | CTNIP4^48–70 (peptide) |
| 3.91 | 568 | CTNIP4^51–70 (peptide) |
| 5.29 | 498 | CTNIP4^54–70 (peptide) |
